The values that follow are results of earlier work, collected in PMC2874015.

Series [1] addresses GCN4 leucine zipper (Saccharomyces cerevisiae) (UniProt P03069).
Series [2] deals with c-Jun leucine zipper (Homo sapiens) (UniProt P05412).

c-Jun leucine zipper, sequence (P05412 277-311): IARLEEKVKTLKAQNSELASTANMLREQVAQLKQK
GCN4 leucine zipper, sequence (P03069 250-277): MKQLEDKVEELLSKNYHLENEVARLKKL

Regarding “GCN4 leucine zipper (from UniProt P03069)”, in series [1], the dissociation constant (Kd) – broadly, the equilibrium constant for the complex coming apart – was 0.008 µM.
With “c-Jun leucine zipper (from UniProt P05412)”, the Kd in series [2] is 448 µM.
